Test results from article PMC8421226, “Structural basis for glucocorticoid receptor recognition of both unmodified and methylated binding sites, precursors of a modern recognition element” (Nucleic Acids Research, 2021).

Experiments:
[1] = test system: AncCR DBD (reconstructed ancestral); test: fluorescence polarization; settings: FP: 20 mM Tris-HCl pH 7.4, 150 mM NaCl, 5% glycerol, 10 nM FAM-DNA, 1 nM-50 uM DBD, temperature not stated
[2] = test system: AncSR2 DBD (reconstructed ancestral); test: fluorescence polarization; settings: FP: 20 mM Tris-HCl pH 7.4, 150 mM NaCl, 5% glycerol, 10 nM FAM-DNA, 1 nM-50 uM DBD, temperature not stated
[3] = test system: AncGR1 DBD (reconstructed ancestral); test: fluorescence polarization; settings: FP: 20 mM Tris-HCl pH 7.4, 150 mM NaCl, 5% glycerol, 10 nM FAM-DNA, 1 nM-50 uM DBD, temperature not stated
GR DBD [4] = biological target: T1, GR DBD (human, UniProt P04150 418-493); test: fluorescence polarization; FP: 20 mM Tris-HCl pH 7.4, 150 mM NaCl, 5% glycerol; 10 nM FAM-DNA, 1 nM-50 uM DBD; temperature not stated; settings: protein: recombinant, tags: 6xHis (pMCSG7 vector), chain copies: 2, label: 5' FAM on strand 1
GR DBD [5] = biological target: T1, GR DBD; test: X-ray crystallography (2.0 A); DBD dimer; FP: 20 mM Tris-HCl pH 7.4, 150 mM NaCl, 5% glycerol; 10 nM FAM-DNA, 1 nM-50 uM DBD; temperature not stated; settings: protein: recombinant; tags: 6xHis (pMCSG7 vector); chain copies: 2
[6] = biological target: the molecule itself; test: crystal structure; GR DBD with 5mC-GBS or pre-GBS DNA duplex, 2:1 protein:DNA molar ratio; hanging drop vapor diffusion, 50 mM sodium cacodylate pH 6.5, 80 mM calcium chloride, 1% glycerol, 7% or 8.5% PEG 400; dimer of DBD on DNA in the asymmetric unit
GR DBD [7] = biological target: T1, GR DBD; test: X-ray crystallography (2.5 A); DBD dimer; FP: 20 mM Tris-HCl pH 7.4, 150 mM NaCl, 5% glycerol; 10 nM FAM-DNA, 1 nM-50 uM DBD; temperature not stated; settings: protein: recombinant; tags: 6xHis (pMCSG7 vector); chain copies: 2
[8] = 5mC at CpG, methyl at mC10 of AGAACGGAGCGTTCT (C12 of strand) seen in structure, other positions in Figure 3A

T1 sequence (P04150 418-493): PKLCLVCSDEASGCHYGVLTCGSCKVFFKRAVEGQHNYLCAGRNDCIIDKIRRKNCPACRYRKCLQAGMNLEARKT

## CCAGAACGGAGCGTTCTGA (double strand) [5mC-GBS]
[1]; [8]
  Kd: 318 nM
[2]; [8]
  Kd: 443 nM
[3]; [8]
  Kd: 78 nM

## CCAGAACGGAGCGTTCTGA / TCAGAACGCTCCGTTCTG [pre-GBS]
[1]
  Kd: 575 nM
[2]
  Kd: 811 nM
[3]
  Kd: 139 nM

B1: pre-GBS (dsDNA)
DNA 1: CCAGAACGGAGCGTTCTGA
DNA 2: TCAGAACGCTCCGTTCTG
GR DBD [4]; as printed the second strand lacks its 3' terminal G (5' overhang 1 nt on strand 1), possibly a misprint
  Kd: 206 nM

B2: 5mC-GBS crystal DNA (dsDNA)
DNA 1: CCAGAACGGAGCGTTCTG
DNA 2: TCAGAACGCTCCGTTCTG
modifications: 5mC at CpG (mC10)
GR DBD [5]
  binding result: binds

B3: human glucocorticoid receptor DNA-binding domain (domain or fragment)
chain: PPKLCLVCSDEASGCHYGVLTCGSCKVFFKRAVEGQHNYLCAGRNDCIIDKIRRKNCPACRYRKCLQAGMNLEAR
notes: Cloned into the pMCSG7 vector; In the crystals two DBD copies sit on one DNA duplex (5mC-GBS or pre-GBS); also called GR DBD; GR; source: E. coli BL21 (DE3) pLysS, purified (His-Trap, gel filtration)
[6]
  stoichiometry N: 2

B4: pre-GBS crystal DNA (dsDNA)
DNA 1: CCAGAACGGAGCGTTCTG
DNA 2: TCAGAACGCTCCGTTCTG
GR DBD [7]
  binding result: binds

B5: GBS (dsDNA)
DNA 1: TGAGAACAGAGTGTTCTTT
DNA 2: AAAGAACACTCTGTTCTCA
GR DBD [4]; blunt
  Kd: 73 nM

B6: 5mC-GBS (dsDNA)
DNA 1: CCAGAACGGAGCGTTCTGA
DNA 2: TCAGAACGCTCCGTTCTGG
modifications: 5mC at CpG; methyl at mC10 of AGAACGGAGCGTTCT (C12 of strand) seen in structure, other positions in Figure 3A
GR DBD [4]; blunt
  Kd: 131 nM
